This passage reports heterodimer formation (% of wild type) (% of wild type) results from PMC2739136.

For one data set, the target named is T1, MBP-TraR A150E, P33905.
T1 chain: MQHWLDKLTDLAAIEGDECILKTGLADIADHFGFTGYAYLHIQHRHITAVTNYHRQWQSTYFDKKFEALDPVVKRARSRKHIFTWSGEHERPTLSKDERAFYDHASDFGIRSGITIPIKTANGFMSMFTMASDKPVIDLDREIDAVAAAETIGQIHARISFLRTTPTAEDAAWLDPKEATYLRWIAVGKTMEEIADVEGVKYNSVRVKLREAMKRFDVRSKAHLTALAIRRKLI
The data set is described as follows: pull-down.

The next data set has as its target T2, MBP-TraR A157E, P33905.
T2 chain: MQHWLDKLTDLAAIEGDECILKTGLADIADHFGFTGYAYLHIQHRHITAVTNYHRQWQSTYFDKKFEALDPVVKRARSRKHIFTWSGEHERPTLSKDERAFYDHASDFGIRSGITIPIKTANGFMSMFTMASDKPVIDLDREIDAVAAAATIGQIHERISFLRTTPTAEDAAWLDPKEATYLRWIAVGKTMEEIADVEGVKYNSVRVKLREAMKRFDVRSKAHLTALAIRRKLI
The data set is described as follows: pull-down.

B1: native TraR (wild type) (protein)
chain: MQHWLDKLTDLAAIEGDECILKTGLADIADHFGFTGYAYLHIQHRHITAVTNYHRQWQSTYFDKKFEALDPVVKRARSRKHIFTWSGEHERPTLSKDERAFYDHASDFGIRSGITIPIKTANGFMSMFTMASDKPVIDLDREIDAVAAAATIGQIHARISFLRTTPTAEDAAWLDPKEATYLRWIAVGKTMEEIADVEGVKYNSVRVKLREAMKRFDVRSKAHLTALAIRRKLI
Regarding B1, the heterodimer formation (% of wild type) (% of wild type) with MBP-TraR A150E, P33905 was 14; with MBP-TraR A157E, P33905 it was 48.
